We go through 5 sequences from article PMC5050335.

For series [1], the target named is T1, Cap0037 (Clostridium acetobutylicum ATCC 824) (UniProt Q97TR1).
T1 sequence: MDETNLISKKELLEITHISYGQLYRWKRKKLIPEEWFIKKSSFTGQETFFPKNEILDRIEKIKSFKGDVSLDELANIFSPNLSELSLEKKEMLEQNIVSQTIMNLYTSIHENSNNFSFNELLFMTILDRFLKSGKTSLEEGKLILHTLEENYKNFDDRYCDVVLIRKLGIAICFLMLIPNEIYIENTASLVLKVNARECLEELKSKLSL
Put plainly: DNase I footprinting. Particulars: EMSA: 20 ul with 2 ul buffer (stock 200 mM Tris, 500 mM Na glutamate, 100 mM MgCl2, 63.6 mM EDTA, 0.5% NP-40, 50% glycerol), 1 ug poly(dI-dC), 20 min room …. A general note: A gel shift assay detects complexes by their altered migration in electrophoresis.

In series [2] the target is T1, Cap0037 (Clostridium acetobutylicum ATCC 824). Put plainly: EMSA. Particulars: EMSA: 20 ul with 2 ul buffer (stock 200 mM Tris, 500 mM Na glutamate, 100 mM MgCl2, 63.6 mM EDTA, 0.5% NP-40, 50% glycerol), 1 ug poly(dI-dC), 20 min room ….

For the sequence “ACAGAATTCCTCAATTCTATTTATGCTCCTATAAAATTTTATAATATAGGAAAACTGCTAAATGTAAATTATACGTTTACATTTAGCAGTTTATTTTAAACCTTCATATTTTTCTAAATATACTGATAATTCCTAAATATATATTATTACGCCAAAATATTAGATACCATTTTGTAAAAGTTGCTATTTACATTTAAATACACAGCTGTTATATTTTTGACCTATGCTTTTTATTGGAT (double strand) [probe sol (sol promoter, footprint)]”, in series [1], the binding result was “binds”.

In the case of “ACAGAATTCGCAGAATTTTTAGGAAGTGTACTTTTATTTTCGAAAGCTAGTAGAAAAAATTAATATATGGTGTAAAAATTTACTTAAAAAAACAATATGTGTTATAATGTAAATATAAATAAATAGGACTAGAGGCGATTTATAATGTGAAGATAAAGTATGTTAGAAAAGCTAAACATTATTAAATTTAGGAAGGTGACTTTTATGTTAAAGGATGAAGTAATTAAACAAATTAGCACGCCATTAACTTCGCCGAT (double strand) [probe adcStart (adc transcription start)]”, the binding entry in series [1] is recorded as “binds”.

“AGAGAATTCCCATTTTACCTTCTATTCTAACTAAAAGGTATATTGATACAGCTATGGGAAAGCCAACATTGCCTATAAGAGACACTATATCGCCTGAATTCATAAAAACACCTCCACATAAGTTTATATAAATCTATTATGCAGAATTTTTAGGAAGTGTACTTTTATTTTCGAAAGCTAGTAGAAAAAATTAATATATGGTGTAAAAATTTACTTAAAAAAACAATATGTGTTATAATGGAT (double strand) [probe 144 (adc promoter, upstream site)]”: in series [1], the binding entry is given as “binds”.

For the sequence “CTGCATAATATAAAATGCAGATTTTTTTAAACAAATATTGATAAAGATTATCAAATGATATATAATATTGTTAGTTAATAAATTAACAAAGTTTTATATTTTAAATACAATGTTGCATAAGACAAGGTAATTGAACTAATACTATACTAGTAATTGGAGGGGATAATATATGAAAAAGAATACTAAAATTTCAGTAATCGGAGCAGGATTTGT (double strand) [ldhA promoter]”, the binding result in series [2] is “no binding”.

Consider “GCATAGGTCAAAAATATAACAGCTGTGTATTTAAATGTAAATAGCAACTTTTACAAAATGGTATCTAATATTTTGGCGTAATAATATATATTTAGGAATTATCAGTATATTTAGAAAAATATGAAGGTTTAAAATAAACTGCTAAATGTAAACGTATAATTTACATTTAGCAGTTTTCCTATATTATAAAATTTTATAGGAGCATAAATAGAATTGAGT (double strand) [sol probe (EMSA)]”, for which the binding entry in series [2] is listed as “binds”.
